In US7691567B2, “Methods and compositions relating to fortilin, an anti-apoptotic molecule, and modulators of fortilin” (Board of Regents, the University of Texas System, priority 2000, dated 2010):
Entries after “also recorded” stand apart in the source; their conditions may differ. Read-outs that look alike come from different tables or passages of the source.

Columns and labels:
caspase 3-like activity = assay: Assay of caspase 3-like activity in U2OS stable transfectants (Z-DEVD-AFC); type: cell-based
Experimental: Assay of caspase 3-like activity. Approximately 2×10^6 U2OS stable transfectants, either expressing Fortilin (U2OS.F) or harboring empty expression vector (U2OS.E), both of which have been characterized above, were challenged either with dimethyl sulfoxide (DMSO) (vehicle) or with etoposide at a final concentration of 10 μg/mL for 48 hours. Caspase 3-like activity was then determined as previously described (Mannick et al., 1999). In brief, cytosolic proteins were extracted in hypotonic cell lysis buffer (25 mM HEPES, pH 7.5, 5 mM MgCl2, 5 mM EDTA, 5 mM dithiothreitol, 0.05% phenylmethylsulfonyl fluoride [PMSF]; all from Sigma) by three cycles of freezing and thawing. The protein concentration of samples was determined by using a BioRad Bradford protein assay kit (BioRad). Ten micrograms of cytosolic extracts were added to caspase assay buffer (312.5 mM HEPES, pH 7.5, 31.25% sucrose, 0.3125% CHAPS) with Z-DEVD-AFC as substrates (CalBiochem, San Diego, Calif.). Release of 7-amido-4-(trifluoromethyl)coumarin (AFC) was quantified, after 2 hours of incubation at 37° C. (or, in the case of time course experiment, every 10 minutes), using a Fluoroskan system (Thermo-Labsystems, Helsinki, Finland) set to an excitation value of 355 nm and emission value of 525 nm. The results were expressed as relative fluorescence unit (R.F.U.) per microgram of protein.

U2OS cells [1] = assay: Bax-mediated apoptosis in transfected U2OS cells (apoptotic index); type: cell-based; settings: for prevention of Bax mediated apoptosis (apoptotic index): U2OS cells cotransfected with Bax-pcDNA3, thirty hours after transfection
Experimental: The amount of LacZ-pFLAG was 1/10 to 1/20 (w/w) of total amounts of DNA added. Thirty hours after the transfection, cells were stained with X-gal. Blue cells represented cells expressing Bax, β-galactosidase and indicated proteins in question. At least 300 blue cells were counted and evaluated for plasma membrane morphology. Rounded cells were counted as apoptotic. Apoptotic index was calculated as the number of blue apoptotic cells divided by the number of total blue cells counted, expressed in percentage. Without the expression of Bax, there was a modest amount of background cell death noted (Lane 6). On the other hand, the presence of Bax caused 2 holds increase in the number of apoptotic cells (Lane 5). […] Taken together, the ability of Fortilin to inhibit Bax mediated apoptosis is mediated by its interaction with MCL1.

H1299 cells = assay: p53-mediated apoptosis in transfected H1299 cells (apoptotic index); type: cell-based; settings: overexpression, thirty hours after transfection
Experimental: Because wild-type p53 can induce apoptosis, the ability of Fortilin to prevent or inhibit p53-mediated apoptosis was examined. H1299 cells were transfected with indicated combinations of mammalian expression constructs. Thirty hours after the transfection, cells were fixed and stained for beta-galactosidase activities. Cells that were round in shape with significant membrane irregularity were counted as apoptotic (FIG. 5). Apoptotic index was calculated as (Blue cells with apoptotic plasma membrane morphology)/(Total blue cells counted)×100.

HeLa cells = assay: Cell death assay: etoposide-induced apoptosis in transfected HeLa cells (apoptotic index); type: cell-based; settings: HeLa cells overexpressing FLAG-tagged protein; 5 μg/mL etoposide 12 hours
Experimental: Cell death assay: The experiment was performed in duplicate and repeated at least three times. A total of […] HeLa cells were seeded in each well of a 4-well Lab-Teck™ chamber slides (Nalge Nunc International), and transfected with pFLAG containing Fortilin or other control cDNAs, using FuGENE6 (Roche). Twenty-four hours after the transfection, the cells were challenged by 5 μg/mL etoposide for 12 hours. Cells were stained for the FLAG-epitope using anti-FLAG antibody (M2, Sigma Co) and anti-mouse IgG conjugated to Rhodamine Red X (Jackson ImmunoResearch Laboratories). The nuclei were stained with DAPI (4,6-Diamidino-2-phenylindole, Sigma Co). Cells were then examined under a Zeiss AXIOSKOP fluorescent microscope (Carl Zeiss Ltd.), using appropriate filter sets. Cells that emitted red fluorescence were evaluated for their nuclear morphology. Condensed or fragmented nuclei were counted as apoptotic. An apoptotic index was then calculated as the number of red cells with apoptotic nuclear morphology divided by the number of total red cells counted and multiplied by 100.
Statistical analysis: For the analysis of statistical significance of apoptotic indices among cells transfected with different plasmids, Dunnett's T tests were performed. In all cases, the confidence intervals were 0.95 with the alpha value of 0.05. For the statistical evaluation of the significant linear trend between the amount of plasmids used for the transfection and apoptotic indices, ANOVA (Analysis of Variance) regression analysis was employed. […] For the analysis of statistical significance of possible correlation between the degree of malignancy and the indices of Fortilin immunoreactivity, Dunnett's multiple range tests were performed.

[2] = system: p53 transactivation of Bax gene; assay: p53 transactivation of Bax gene, p-Bax-RE-Luc luciferase reporter in H1299 cells; type: cell-based; settings: twenty-four hours after transfection
Experimental: The ability of Fortilin to interfere with transactivation of the Bax gene by p53 was investigated. Non-small cell lung cancer cell line H1299 cells were transfected with p53-pcDNA3, LacZ-pFLAG, p-Bax-RE-Luc (a plasmid encoding the Luciferase gene under the control of the Bax responsive element) and pFLAG vector encoding Bcl-2, MCL1, Fortilin or truncated Fortilin as indicated in FIG. 6. Twenty-four hours after the transfection, luciferase activity was measured and normalized to the β-galactosidase activity, the latter representing transfection efficiency.
Next, studies were conducted to determine whether the inhibition was dosage dependent. H1299 cells were transfected with p53-pcDNA3, LacZ-pFLAG, p-Bax-RE-Luc and various amount of Fortilin-pFLAG. The total amount of DNA added was adjusted by the addition of empty pFLAG vector. Twenty-four hours after the transfection, luciferase activity was measured and normalized to the β-galactosidase activity.

U2OS cells [3] = settings: U2OS stable transfectants of HA-tagged Fortilin or deletion mutants, 5 μg/mL etoposide 48 hours
Description: Generation and characterization of U2OS cells stably expressing Fortilin. U2OS cells were transfected with empty pcDNA6, a mammalian expression vector containing a blasticidine resistance gene (Invitrogen, Carlsbad, Calif.), or with pcDNA6 vector encoding wild-type Fortilin, by using FuGENE6 (Roche Molecular Biochemicals) according to the manufacturer's instructions. Transfected cells were selected for approximately 3 weeks and characterized by Western blot analysis. For the cytotoxicity assay, U2OS cells stably expressing wild-type Fortilin (U2OS.F) and U2OS cells stably harboring empty pcDNA6 (U2OS.E) were seeded in a 96 well plate in quadruplicate. For the investigation of dose response, cells were challenged with various concentrations of etoposide (0-20 μg/mL) for 48 hours. For the time course study, cells were challenged with 5 μg/mL of etoposide and harvested after various incubation periods (0-96 hours). In both cases, the cell media were assayed for the lactate dehydrogenase (LDH) activity released from the cytosol of damaged cells, using a cytotoxicity detection kit (Roche Molecular Biochemicals) according to the manufacturer's instructions. The cytotoxicity index was calculated as follows: (LDH activity in the media−background LDH activity)÷(LDH activity in the medium of cells lysed by 1% Triton X-100−background LDH activity)×100.
Cell death assay. U2OS cells stably expressing Fortilin or its mutants were seeded in 96-well plates in triplicate. Cells were then challenged with 5 μg/mL of etoposide (Sigma) for 48 hours. Then the cell media were assayed for the lactate dehydrogenase (LDH) activity released from the cytosol of damaged cells, using a Cytotoxicity Detection Kit (Roche Molecular Biochemicals), according to the manufacturer's instructions. The cytotoxicity index was calculated as follows: (LDH activity in the media−background LDH activity)/(LDH activity in the medium of the cells lysed by 1% Triton X-100−background LDH activity)×100.
Statistical analysis. For analysis of the statistical significance of differences in cytotoxicity indices among cells stably transfected with Fortilin, its mutants or control plasmids, Student's t-test was performed using a commercial software (Minitab Inc., State College, Pa.). In all cases, a P-value less than 0.05 was considered to be statistically significant.

MCL1 [4] = target: T1, MCL1 (Homo sapiens, UniProt Q07820); assay: In vitro pull-down assay of HA-tagged Fortilin or mutants with MCL1; type: binding; settings: in vitro translated 35S-labeled proteins, anti-HA pull-down
MCL1 [5] = target: T1, MCL1; assay: Yeast two-hybrid assay, X-gal filter lift; type: binding; settings: Saccharomyces cerevisiae SFY526 cells
Description: Yeast two-hybrid assay. Saccharomyces cerevisiae SFY526 cells (CloneTech) were cotransformed with (a) empty pAS2.1 vector or pAS2.1 vector containing a full-length MCL1 construct and (b) empty pACT2 vector or pACT2 vector containing FL1, the original clone isolated from yeast two-hybrid screening and representative of the nearly full-length Fortilin molecule (amino acids 5-172). FL1 was redesignated as FortilinΔ5-172. Transformed cells were selected on SD plates lacking tryptophan and leucine (SD/-Trp/-Leu plates) for 7 days and subjected to a X-gal filter lift assay as described above. The blue color that developed within 8 hours was considered to represent a positive interaction.
The yeast two-hybrid system was employed to evaluate any interaction between Fortilin and MCL1. Saccharomyces cerevisiae SFY526 cells were co-transformed with pAS2.1 or pAS2.1-MCL1 and pGAD GH or pGAD GH-FL1, the 5th-172st amino acids of Fortilin. Transformed cells were selected on SD/-Trp/-Leu plates. Grown colonies on these selection plates were subjected to a X-gal filter lift assay, as the reporter gene was […] under the control of a promoter containing the element recognized by the DNA binding domain. […] MCL1 consists of four BH (Bcl-2 homology) domains and two PEST (proline (P), glutamic acid (E), serine (S) and threonine (T)) sequences. “CHT” denotes the C-terminus Hydrophobic Tail. […]

MCL1 [6] = target: T1, MCL1; assay: In vivo coimmunoprecipitation assay in U2OS stable transfectants of Fortilin and mutants; settings: anti-HA immunoprecipitation
Description: In vivo coimmunoprecipitation assay. COS-7 cells (2.5×10^6) were cotransfected with pcDNA3-Fortilin-HA or pcDNA3 and with FLAG-MCL1/pFLAG-CMV or pFLAG-CMV vectors using FuGENE6 (Roche Molecular Biochemicals), according to the manufacturer's instructions. […] Formed complexes were precipitated by sheep anti-rat antibodies conjugated to Dynabead™ (Dynal USA); washed with Buffers A and B; eluted into SDS gel loading buffer; and subjected to SDS-PAGE, Western blot transfer and immuodetection with anti-HA (16B12; Covance, Richmond, Calif.) and anti-FLAG (M2; Sigma) antibodies. […] Cells were harvested by scraping, washed with chilled PBS, suspended in Buffer C (Buffer A supplemented with 0.02% NP-40), and lysed by a nitrogen cavitation method (PARR Instrument Co). […] Formed complexes were precipitated by sheep anti-rat antibodies conjugated to Dynabeads™ (Dynal USA); washed with Buffers C; eluted into SDS gel loading buffer; and subjected to SDS-PAGE, Western blot transfer and immuodetection with anti-HA (16B12; Covance, Richmond, Calif.) and anti-MCL1 (Santa Cruz Biotechnology) antibodies.

T1 sequence (Q07820 whole entry): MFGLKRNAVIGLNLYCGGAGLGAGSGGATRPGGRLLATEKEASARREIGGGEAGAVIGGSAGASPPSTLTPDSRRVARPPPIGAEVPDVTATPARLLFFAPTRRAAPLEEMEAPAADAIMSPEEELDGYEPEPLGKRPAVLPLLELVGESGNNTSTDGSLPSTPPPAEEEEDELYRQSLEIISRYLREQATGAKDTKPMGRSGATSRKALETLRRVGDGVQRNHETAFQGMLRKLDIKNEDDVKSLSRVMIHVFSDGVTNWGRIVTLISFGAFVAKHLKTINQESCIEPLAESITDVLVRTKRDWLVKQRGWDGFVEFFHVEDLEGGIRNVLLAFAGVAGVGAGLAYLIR

## COc1cc([C@@H]2c3cc4c(cc3[C@@H](O[C@@H]3O[C@@H]5CO[C@@H](C)O[C@H]5[C@H](O)[C@H]3O)[C@H]3COC(=O)[C@H]23)OCO4)cc(OC)c1O [etoposide, reference compound]
Caspase 3-like activity; control U2OS.E cells (empty vector), etoposide 10 μg/mL 48 hours
  caspase-3-like activity index: 1488.1±58.7 R.F.U./μg protein
Caspase 3-like activity; control U2OS.E cells, etoposide challenge vs no etoposide
  increase in caspase-3-like activity: 9.4 fold

## Bax: pro-apoptotic protein expressed from Bax-pcDNA3 to induce apoptosis [reference compound]
U2OS cells [1]; U2OS cells, Bax expression versus without Bax
  increase in the number of apoptotic cells: 2 holds

## Bcl-2: anti-apoptotic protein overexpressed as comparator [reference compound]
H1299 cells
  suppression of p53 induced apoptosis (apoptotic index): statistically significant (p<0.001) suppression of p53-induced apoptosis; also recorded: statistically significant (p<0.001) suppression of p53 induced apoptosis

## Bcl-xL: a Bcl-2 family protein, overexpressed as anti-apoptotic comparator
HeLa cells
  prevention of Etoposide-induced apoptosis (apoptotic index): prevented HeLa cells from undergoing Etoposide-induced apoptosis in a statistically significant fashion

## MCL1: Myeloid Cell Leukemia 1, a Bcl-2 homologue, anti-apoptotic protein [reference compound]
H1299 cells
  suppression of p53 induced apoptosis (apoptotic index): statistically significant (p<0.001) suppression of p53-induced apoptosis; also recorded: statistically significant (p<0.001) suppression of p53 induced apoptosis
U2OS cells [1]
  prevention of Bax mediated apoptosis (apoptotic index): prevented cells from undergoing Bax mediated apoptosis
[2]
  inhibition of p53 transactivation of Bax gene (luciferase normalized to β-galactosidase): inhibited p53 transactivation of the Bax gene
HeLa cells
  prevention of Etoposide-induced apoptosis (apoptotic index): prevented HeLa cells from undergoing Etoposide-induced apoptosis in a statistically significant fashion

B1: FortilinΔ23-172: mutant of Fortilin representing 23rd-172nd amino acids of Fortilin (protein)
chain: IADGLCLEVEGKMVSRTEGNIDDSLIGGNASAEGPEGEGTESTVITGVDIVMNHHLQETSFTKEAYKKYIKDYMKSIKGKLEEQRPERVKPFMTGAAEQIKHILANFKNYQFFIGENMNPDGMVALLDYREDGVTPYMIFFKDGLEMEKC
H1299 cells; listed as Fortilin(23-172)
  suppression of p53 induced apoptosis (apoptotic index): did not significantly prevent p53-mediated apoptosis; also recorded: did not significantly prevent p53 mediated apoptosis
U2OS cells [3]
  cytotoxicity index relative to control transfectants: could not prevent cells from undergoing etoposide-induced cell death and instead sensitized the cells to etoposide-induced cell death
U2OS cells [3]; listed as fortilinΔ23-172
  cytotoxicity index relative to control transfectants: significantly higher than that of control cells
U2OS cells [1]
  prevention of Bax mediated apoptosis (apoptotic index): failed to prevent cells from undergoing Bax mediated apoptosis
[2]; listed as truncated Fortilin (23-172)
  inhibition of p53 transactivation of Bax gene (luciferase normalized to β-galactosidase): inhibited p53 transactivation of the Bax gene

B2: FortilinΔ5-172: nearly full-length Fortilin molecule (amino acids 5-172) (protein)
chain: RDLISHDEMFSDIYKIREIADGLCLEVEGKMVSRTEGNIDDSLIGGNASAEGPEGEGTESTVITGVDIVMNHHLQETSFTKEAYKKYIKDYMKSIKGKLEEQRPERVKPFMTGAAEQIKHILANFKNYQFFIGENMNPDGMVALLDYREDGVTPYMIFFKDGLEMEKC
modifications: left off: small tags and cut ends
MCL1 [4]
  interaction / co-immunoprecipitation with MCL1 in vitro: interacted
MCL1 [4]; listed as Fortilin (5-172)
  interaction / co-immunoprecipitation with MCL1 in vitro: co-immunoprecipitated MCL1 in vitro
U2OS cells [3]
  cytotoxicity index relative to control transfectants: significantly lower
U2OS cells [3]; listed as fortilinΔ5-172
  cytotoxicity index relative to control transfectants: significantly lower than the cytotoxicity index of control cells
MCL1 [5]
  interaction with MCL1 in yeast (X-gal activity): X-gal activity was observed
MCL1 [6]
  co-immunoprecipitation of MCL1 in vivo: co-immunoprecipitated MCL1

B3: FortilinΔ46-172: Fortilin deletion mutant that lacks 26% of wild type Fortilin (protein)
chain: SLIGGNASAEGPEGEGTESTVITGVDIVMNHHLQETSFTKEAYKKYIKDYMKSIKGKLEEQRPERVKPFMTGAAEQIKHILANFKNYQFFIGENMNPDGMVALLDYREDGVTPYMIFFKDGLEMEKC
modifications: left off: small tags and cut ends
notes: Fortilin deletion mutant that lacks 26% of wild type Fortilin
U2OS cells [3]
  cytotoxicity index relative to control transfectants: significantly lower than the cytotoxicity index of control cells
U2OS cells [3]; listed as FortilinΔ45-172
  cytotoxicity index relative to control transfectants: still capable of protecting cells, albeit modestly, from etoposide-induced cell death
